Among the data in publication PMC3735172 are binding result and Kd values, retold here.

Like-named read-outs stand apart in the source and are kept apart here.

Holding throughout (assay): EMSA
Data set [1] addresses T1, MtAlba(I39) (Methanothermobacter thermautotrophicus …, UniProt O27527 1-91).
T1 sequence: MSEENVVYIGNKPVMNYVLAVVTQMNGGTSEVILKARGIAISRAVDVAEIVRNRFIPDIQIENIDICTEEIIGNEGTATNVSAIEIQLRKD

The target in the next data set is T2, MtAlba(R39) (Methanothermobacter thermautotrophicus, UniProt O27527 1-91, I39R).
T2 sequence: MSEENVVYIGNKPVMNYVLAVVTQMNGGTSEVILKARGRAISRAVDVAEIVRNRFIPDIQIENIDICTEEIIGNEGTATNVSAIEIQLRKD

Data set [2] has as its target T1, MtAlba(I39). The source holds these as a separate data set.

B1: tRNAPro (structured_RNA)
RNA: GGGCGAGUAGCGCAGCUUGGUAGCGCAACUGGUUUGGGACCAGUGGGUCGGAGGUUCGAAUCCUCUCUCGUCCACCA
What is called Kd is the concentration at which binding is half-saturated. Read a low Kd as higher affinity. For the molecule B1, the binding result with MtAlba(I39) [1] was “no binding”. Moreover, the Kd with MtAlba(R39) is around 1000 nM.

B2: 36 bp dsDNA (dsDNA)
DNA 1: ATCAATTAAAGCGTTCTACGGCGTTTTAGATCTGAT
DNA 2: ATCAGATCTAAAACGCCGTAGAACGCTTTAATTGAT
As to B2, the binding result in the data set with MtAlba(I39) [2] is “no binding”. The molecule also showed a Kd with MtAlba(R39) of around 200 nM.

As to UUAAAGCCCGUGGAAGAGCC (ssRNA) [ssRNA], the binding result with MtAlba(I39) [1] is recorded as “no binding”. The same molecule had a Kd with MtAlba(R39) of around 1500 nM.
